The text below walks through data of patent US20230168249A1 (ACADEMIA SINICA, published 2023).

T1: HCoV-NL63-N protein (HCoV-NL63, UniProt Q6Q1R8 1-377)
T1 construct: also called NL63-CoV N
T1 sequence: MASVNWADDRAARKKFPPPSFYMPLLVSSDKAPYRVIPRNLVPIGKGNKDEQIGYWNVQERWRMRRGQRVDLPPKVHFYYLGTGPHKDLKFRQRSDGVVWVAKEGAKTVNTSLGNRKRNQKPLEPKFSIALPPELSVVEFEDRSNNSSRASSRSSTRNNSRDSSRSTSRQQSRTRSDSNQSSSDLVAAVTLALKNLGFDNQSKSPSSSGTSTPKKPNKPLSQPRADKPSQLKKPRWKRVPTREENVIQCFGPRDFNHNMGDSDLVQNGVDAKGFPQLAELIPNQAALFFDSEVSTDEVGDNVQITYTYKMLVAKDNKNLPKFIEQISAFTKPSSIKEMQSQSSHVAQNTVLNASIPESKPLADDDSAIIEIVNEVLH

T2: HCoV-HKU1-N protein (HCoV-HKU1, UniProt Q5MQC6 1-441)
T2 construct: also called HKU1-CoV N
T2 chain: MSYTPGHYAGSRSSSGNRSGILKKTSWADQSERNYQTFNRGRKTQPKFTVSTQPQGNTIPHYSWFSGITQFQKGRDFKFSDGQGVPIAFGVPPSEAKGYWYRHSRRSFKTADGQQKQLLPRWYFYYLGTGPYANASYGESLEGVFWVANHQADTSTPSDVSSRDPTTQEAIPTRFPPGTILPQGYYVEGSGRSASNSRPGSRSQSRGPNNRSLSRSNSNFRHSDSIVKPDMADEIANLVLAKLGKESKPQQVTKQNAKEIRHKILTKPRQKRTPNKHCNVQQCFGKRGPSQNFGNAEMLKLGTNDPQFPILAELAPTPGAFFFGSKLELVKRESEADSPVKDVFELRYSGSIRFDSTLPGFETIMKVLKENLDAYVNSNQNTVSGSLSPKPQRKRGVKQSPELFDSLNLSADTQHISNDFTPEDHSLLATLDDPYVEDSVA

T3: HCoV-OC43-N protein (HCoV-OC43, UniProt P33469 1-448)
T3 construct: also called OC43-CoV N
T3 chain: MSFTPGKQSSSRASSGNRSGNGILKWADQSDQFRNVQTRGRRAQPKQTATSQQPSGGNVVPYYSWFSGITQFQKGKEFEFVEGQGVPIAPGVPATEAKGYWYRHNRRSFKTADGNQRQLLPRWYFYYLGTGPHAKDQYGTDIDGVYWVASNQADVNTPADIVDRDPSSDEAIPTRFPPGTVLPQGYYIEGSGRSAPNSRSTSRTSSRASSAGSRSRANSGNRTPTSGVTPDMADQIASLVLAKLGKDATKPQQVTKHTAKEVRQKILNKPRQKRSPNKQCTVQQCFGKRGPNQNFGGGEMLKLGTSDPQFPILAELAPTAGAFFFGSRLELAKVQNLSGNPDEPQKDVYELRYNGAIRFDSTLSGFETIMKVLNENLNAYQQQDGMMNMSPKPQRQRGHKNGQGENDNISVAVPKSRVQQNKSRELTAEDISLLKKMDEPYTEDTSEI

B1: antibody #36 (antibody, V domains shown)
VH: EVQLVESGGGLVQPGGSLRLSCAASGFTINRYSIHWVRQAPGKGLEWVAGIWPFGGDTTYADSVKGRFTISADTSKNTAYLQMNSLRAEDTAVYYCARGATSHDYWGQGTLVTVSS
VL: DIQMTQSPSSLSASVGDRVTITCRASQDVTTTVAWYQQKPGKAPKLLINKGSWLYSGVPSRFSGSGSGTDFTLTISSLQPEDFATYYCQQYNKWPLTFGQGTKVEIKR
notes: also called IgG1#36; D36
B2: antibody #48 (antibody, V domains shown)
VH: EVQLVESGGGLVQPGGSLRLSCAASGFTISNFGIHWVRQAPGKGLEWVAGIWPYGGYTFYADSVKGRFTISADTSKNTAYLQMNSLRAEDTAVYYCARFDSYSYSGYMDYWGQGTLVTVSS
VL: DIQMTQSPSSLSASVGDRVTITCSGSSSNIGDNNVYWYQQKPGKAPKLLIFGPAYLYSGVPSRFSGSGSGTDFTLTISSLQPEDFATYYCAAGYSDNNGITFGQGTKVEIKR
notes: also called C48
B3: antibody #7 (antibody, V domains shown)
VH: EVQLVESGGGLVQPGGSLRLSCAASGFTIEDRWIHWVRQAPGKGLEWVASIWPMEGLTRYADSVKGRFTISADTSKNTAYLQMNSLRAEDTAVYYCARGYYGFDYWGQGTLVTVSS
VL: DIQMTQSPSSLSASVGDRVTITCRASQDVEARVAWYQQKPGKAPKLLIFTSTRLYSGVPSRFSGSGSGTDFTLTISSLQPEDFATYYCQQIMPLPTTFGQGTKVEIKR
notes: also called C07
B4: antibody #33 (antibody, V domains shown)
VH: B3 VH with E30N, D31N, R32G, W33G, S50G, M54F, E55W, L57S, R59S, Y100S
VL: B1 VL with T30Y, T31S, T32S, N49F, K50G, G51S, W53F, N92Y, K93D, L96I
notes: also called D33; C33
B5: antibody #11 (antibody, V domains shown)
VH: EVQLVESGGGLVQPGGSLRLSCAASGFTIQDRMIHWVRQAPGKGLEWVASILPFLGATWYADSVKGRFTISADTSKNTAYLQMNSLRAEDTAVYYCARSWFSPFDYWGQGTLVTVSS
VL: DIQMTQSPSSLSASVGDRVTITCRASQDVGGSVAWYQQKPGKAPKLLISFPGGLYSGVPSRFSGSGSGTDFTLTISSLQPEDFATYYCQQYFSWPITFGQGTKVEIKR
notes: also called D11; C11
B6: antibody #21 (antibody, V domains shown)
VH: B1 VH with R31N, Y32G, G50W, D57Y, T59Y, A100S, T101Y, S102G, H103Y
VL: DIQMTQSPSSLSASVGDRVTITCRASQDVGSNVAWYQQKPGKAPKLLIFSAPFLYSGVPSRFSGSGSGTDFTLTISSLQPEDFATYYCQQFYDWPLTFGQGTKVEIKR
notes: also called D21
B7: antibody #22 (antibody, V domains shown)
VH: B1 VH with N30S, R31S, Y32G, G50S, D57Y, T59S, A100S, T101F, S102G, H103S
VL: B5 VL with G30D, G31D, S32N, F50S, P51S, G52S, Y91S, F92Y, S93N, W94G
notes: also called D22

Residue numbers refer to the chain shown, from its start.

The first experiment concerns the target T4, SARS-CoV-2-N protein (SARS-CoV-2, UniProt P0DTC9 1-419).
Assay: not given
For B1, the response was half-maximal at 0.0288 µg/mL (EC50).
Still for that read-out and setting: in the case of B2 it was 0.0207 µg/mL.
Still for that read-out and setting: in the case of B3 it was 0.018 µg/mL; in that of B4, 0.0255 µg/mL.

For the next experiment, the target named is T5, MERS-CoV-N protein (MERS-CoV, UniProt K9N4V7 1-411).
T5 construct: also called MERS-CoV nucleocapsid protein
Description: ELISA, IgG1 on recombinant N protein. (In general: ELISA stands for enzyme-linked immunosorbent assay.)
As for B5, the concentration giving a half-maximal response (EC50) (as a rule, the concentration that produces a half-maximal response) is over 2 µg/mL.
Same read-out and setting: in the case of B6 it was over 2 µg/mL.
The same measure, in the same setting: in the case of B1 it was over 2 µg/mL.
Same read-out and setting: in the case of B7 it was over 2 µg/mL; in that of B2, over 2 µg/mL.
Consider B3, for which the EC50 was over 2 µg/mL.
On the same count and under the same terms, the value for B4 was over 2 µg/mL.

A further experiment deals with T1, HCoV-NL63-N protein. Description: ELISA, IgG1 on recombinant N protein.
Consider B5, for which the EC50 was over 2 µg/mL.
Consider B6, for which the EC50 is over 2 µg/mL.
Still for that read-out and setting: the value for B1 was over 2 µg/mL; that for B7 was over 2 µg/mL; that for B2 was over 2 µg/mL.
Still for that read-out and setting: the value for B3 was over 2 µg/mL.
Same read-out and setting: the value for B4 was over 2 µg/mL.

In another experiment the target is T2, HCoV-HKU1-N protein. Nature of the experiment: ELISA, IgG1 on recombinant N protein.
Consider B5, for which the EC50 is over 2 µg/mL.
On the same count and under the same terms, the value for B6 was over 2 µg/mL; that for B1 was over 2 µg/mL; that for B7 was over 2 µg/mL.
For the molecule B2, the EC50 is over 2 µg/mL.
The same measure, in the same setting: in the case of B3 it was over 2 µg/mL.
On the same count and under the same terms, in the case of B4 it was over 2 µg/mL.

The next experiment concerns the target T6, SARS-CoV-1-N protein (SARS-CoV-1, UniProt P59595 1-422).
T6 construct: also called SARS-CoV N; SARS-CoV-N
Nature of the experiment: ELISA, IgG1 on recombinant N protein.
Take B5: the 50% effective concentration (EC50) came to 0.0069 µg/mL.
On the same count and under the same terms, the value for B6 was 0.0214 µg/mL; that for B1 was 0.002 µg/mL.
For B7, the EC50 amounted to 0.0039 µg/mL.
Same read-out and setting: in the case of B2 it was 0.0186 µg/mL; in that of B3, 0.0037 µg/mL; in that of B4, 0.0016 µg/mL.

A further experiment deals with T4, SARS-CoV-2-N protein. Nature of the experiment: ELISA, IgG1 on recombinant N protein.
Turning to B6, the EC50 stood at 0.018 µg/mL.
The same measure, in the same setting: the value for B1 was 0.0008 µg/mL; that for B7 was 0.0044 µg/mL.
Same read-out and setting: in the case of B2 it was 0.0467 µg/mL; in that of B3, 0.0037 µg/mL.
On the same count and under the same terms, the value for B4 was 0.0014 µg/mL.

A further experiment deals with T3, HCoV-OC43-N protein. Description: ELISA, IgG1 on recombinant N protein.
For B5, the EC50 is over 2 µg/mL.
Regarding B6, the concentration for a half-maximal effect (EC50) was over 2 µg/mL.
Still for that read-out and setting: in the case of B1 it was over 2 µg/mL; in that of B7, over 2 µg/mL; in that of B2, over 2 µg/mL.
Still for that read-out and setting: in the case of B3 it was over 2 µg/mL; in that of B4, over 2 µg/mL.
